Series [1] deals with Histone H3-H4, Cy5-labelled ((only implied by the reviewer comments)). As to the kind of experiment: single-molecule DNA curtain. As to conditions: DNA curtain: 5 nM Abo1 and 12.5 nM Cy5-H3-H4 pre-incubated on ice 15 min with 1 mM nucleotide, then 15 min with DNA without flow, YOYO-1 washed out in assay ….
Series [2] addresses Cy3-labeled histone H3–H4 (X. laevis) (UniProt P84233). As to the kind of experiment: fluorescence polarisation; fluorescence anisotropy; 0–1 μM Abo1 added to 20 nM Cy3-labeled H3–H4; 30 mM HEPES pH 7.5, 200 mM NaCl, 1 % glycerol, 2 mM MgCl2, 0.01 % NP-40; room temperature; affinity not significantly changed with nucleotide.
Series [3] concerns the molecule itself. Kind of series: SEC; Superose6 gel filtration of purified Abo1 in buffer with 2 mM EDTA, 2 mM MgCl2 or 2 mM MgATP. In general terms: In gel filtration, larger molecules generally elute earlier.
Series [4] concerns the molecule itself. Kind of series: cryo-EM structure; Abo1 in 20 mM HEPES pH7.5, 250 mM NaCl, 1 mM DTT, 0.025 % octyl β-D-glucoside with 2 mM MgCl2 (apo), 2 mM MgADP or 2 mM MgATP (Walker B mutant).

A value given as a limit tells only on which side of the number the result lay.

As usually defined, the Kd is a measure of binding affinity in units of concentration. Read a high Kd as lower affinity. For orientation: stoichiometry N means the number of molecules, sites or subunits per partner or assembly.

Take “lambda phage DNA (single-tethered DNA curtain)”: the binding signal (% DNA with bound H3-H4) was 5.24 in series [1]; 85 in series [1] (loading by wild-type Abo1 (5 nM), 1 mM ATP); below 10 in series [1] (wild-type Abo1, no ATP).

B1: Abo1 (aa243–1190), wild type (enzyme, Schizosaccharomyces pombe, UniProt O14114 243-1190, looked up)
chain: GRIREKSDLADSDPLGVDSSLSFESVGGLDNYINQLKEMVMLPLLYPEIFQRFNMQPPRGVLFHGPPGTGKTLMARALAAACSSENKKVSFYMRKGADCLSKWVGEAERQLRLLFEEAKSTQPSIIFFDEIDGLAPVRSSKQEQIHASIVSTLLALMDGMESRGQVIIIGATNRPDAVDPALRRPGRFDREFYFPLPDRDARKKIIEIHTRNWDPPVPEWLCSMLAEKSKGYGGADLRALCTEAALNSIKRTYPQLYRSTKRLQIDPKTIKVKVKDFVMSMKRMIPSSERSSISPSKPLSPELKPLLNEAFQDIEKTLQKLMPVASKLNPLEEVMYDDPKENDFEYQQRLETFETLRIYKPRFLICGRKGLGQTALGPAILQQYEGVHVQSFDMSTLLQDSTQSIETSIIHLFLEVRRHTPSIIYIPDIDNWLNVLPLTAITTFSSMLERLDFSDQILFLALSSSPLSELHPQLREWFSSKQSVYSLQYPTRDSIIAFFQPILELIKASPTELPGGIPRKRRVLPELPLAPDPPPFTSQKITLKQTKQADMRLLNKLKIKLNALLGSLRARYRKFKKPLIDFNDIYCVDPETGHSYRSREECHYEFVDDVVKQIGSDQKFSMMSLEEIEKRTWDNCYCTPKQFVHDIKLILRDALQLEDSETIKRAQEMYANVLLGVEDMEDDQFSQRCERMALREAERRKLRHGKLQKHLDETKADMQFTSEKPSVDESITEVDDAIKDGPPVLAETLTNSLMEDVGPENVDMDIEDNEIFTNQSTMSVPSMLVENEESPKPDEYIDQKDKVQSPLLNGKSPVGVPSEAALRVSTDVSTNISSNGRADIPVDTLITSPADVPNNAPTDAHNITSADGHIENIEQEVVFPDLVFDEDRLTPLKQLLIDSTTGFTVDQLLHLHSFLYQIIWNTKSEWNRNSVVDECERAVKEFMINALQ
notes: Abo1, Schizosaccharomyces pombe ATAD2 homolog, aa243–1190 (acidic N-terminus truncated; two AAA+ domains, bromodomain and C-terminal domain); Gene synthesized (Genscript), pFastBac-HTB; also called recombinant Abo1; wild-type Abo1; source: Sf9 (baculovirus), purified (Ni-NTA, TEV cleavage, HiTrapQ); not shown: 6xHis, N-terminal, cleaved
In series [2], B1 had a dissociation constant Kd of 23 nM. Moreover, in series [3], the “stoichiometry N” value stood at 6.

B2: Abo1 Walker B mutant (E372Q), aa243–1190 (enzyme, Schizosaccharomyces pombe, UniProt O14114 243-1190, looked up)
chain: GRIREKSDLADSDPLGVDSSLSFESVGGLDNYINQLKEMVMLPLLYPEIFQRFNMQPPRGVLFHGPPGTGKTLMARALAAACSSENKKVSFYMRKGADCLSKWVGEAERQLRLLFEEAKSTQPSIIFFDQIDGLAPVRSSKQEQIHASIVSTLLALMDGMESRGQVIIIGATNRPDAVDPALRRPGRFDREFYFPLPDRDARKKIIEIHTRNWDPPVPEWLCSMLAEKSKGYGGADLRALCTEAALNSIKRTYPQLYRSTKRLQIDPKTIKVKVKDFVMSMKRMIPSSERSSISPSKPLSPELKPLLNEAFQDIEKTLQKLMPVASKLNPLEEVMYDDPKENDFEYQQRLETFETLRIYKPRFLICGRKGLGQTALGPAILQQYEGVHVQSFDMSTLLQDSTQSIETSIIHLFLEVRRHTPSIIYIPDIDNWLNVLPLTAITTFSSMLERLDFSDQILFLALSSSPLSELHPQLREWFSSKQSVYSLQYPTRDSIIAFFQPILELIKASPTELPGGIPRKRRVLPELPLAPDPPPFTSQKITLKQTKQADMRLLNKLKIKLNALLGSLRARYRKFKKPLIDFNDIYCVDPETGHSYRSREECHYEFVDDVVKQIGSDQKFSMMSLEEIEKRTWDNCYCTPKQFVHDIKLILRDALQLEDSETIKRAQEMYANVLLGVEDMEDDQFSQRCERMALREAERRKLRHGKLQKHLDETKADMQFTSEKPSVDESITEVDDAIKDGPPVLAETLTNSLMEDVGPENVDMDIEDNEIFTNQSTMSVPSMLVENEESPKPDEYIDQKDKVQSPLLNGKSPVGVPSEAALRVSTDVSTNISSNGRADIPVDTLITSPADVPNNAPTDAHNITSADGHIENIEQEVVFPDLVFDEDRLTPLKQLLIDSTTGFTVDQLLHLHSFLYQIIWNTKSEWNRNSVVDECERAVKEFMINALQ
notes: Abo1, Schizosaccharomyces pombe, aa243–1190, Walker B mutation E372Q; also called ATP-Abo1 Walker B mutant; ATP-Abo1; source: Sf9 (baculovirus), purified (Ni-NTA, TEV cleavage, HiTrapQ); not shown: 6xHis, N-terminal, cleaved
For the molecule B2, the binding result in series [4] is given as “binds”.
